The record followed here is the array DNA melting data of Ke et al..

A short description of this series: melting temperature; UV melt of duplexes.

Turning to “CCGTGCGGTGTGTACGTTTTATTCATCATA+TATGATGAATAAAACGTACACACCGCACGG ((((((((((((((((((((((((((((((+))))))))))))))))))))))))))))))”, the Tm (as a rule, the temperature at which the thermal transition is half complete) (sodium 0.07 M, strand 2 µM) was 63.9 °C; the midpoint of thermal melting (Tm) (sodium 0.12 M, strand 2 µM) came out at 68.3 °C; the Tm (sodium 0.22 M, strand 2 µM) is 71.8 °C; the Tm (sodium 0.62 M, strand 2 µM) amounted to 76.5 °C; the midpoint of thermal melting (Tm) (sodium 1.02 M, strand 2 µM) stood at 77.6 °C.
For the substance “CGGAATCCATGTTACTTCGGCTATC+GATAGCCGAAGTAACATGGATTCCG (((((((((((((((((((((((((+)))))))))))))))))))))))))”, the midpoint of thermal melting (Tm) reads like this: (sodium 0.07 M, strand 2 µM) 60.9 °C; (sodium 0.12 M, strand 2 µM) 64.7 °C; (sodium 0.22 M, strand 2 µM) 68.7 °C; (sodium 0.62 M, strand 2 µM) 73.3 °C; (sodium 1.02 M, strand 2 µM) 74.8 °C.
Consider “ATATATATGAATTCATATATAT+ATATATATGAATTCATATATAT ((((((((((((((((((((((+))))))))))))))))))))))”, for which the melting temperature (Tm) (sodium 0.12 M, strand 6 µM) was found to be 48.9 °C.
As to “AACGCGCGTAGAGTGGCCGCAA+TTGCGGCCACTCTACGCGCGTT ((((((((((((((((((((((+))))))))))))))))))))))”, for the setting “sodium 0.12 M, strand 6 µM”, the Tm was determined as 77.3 °C.
As for “TAGTATATCGCAGCATCATACAGGC+GCCTGTATGATGCTGCGATATACTA (((((((((((((((((((((((((+)))))))))))))))))))))))))”, the Tm (sodium 0.07 M, strand 2 µM) came to 61.2 °C; the melting temperature (Tm) (sodium 0.12 M, strand 2 µM) is 64.7 °C; the Tm (sodium 0.22 M, strand 2 µM) stood at 69.1 °C; the melting temperature (Tm) (sodium 0.62 M, strand 2 µM) came out at 72.8 °C; the melting temperature (Tm) (sodium 1.02 M, strand 2 µM) came to 75 °C.
Taken in the same sequence, the figures for “CAGTGGGCTCCTGGGCGTGCTGGTC+GACCAGCACGCCCAGGAGCCCACTG (((((((((((((((((((((((((+)))))))))))))))))))))))))” were 72 °C, 75.6 °C, 79.2 °C, 82.6 °C and 83.4 °C.
For “AACGCCGGTAGAGTGCGCGCAA+TTGCGCGCACTCTACCGGCGTT ((((((((((((((((((((((+))))))))))))))))))))))”, the Tm (sodium 0.12 M, strand 5.9 µM) was found to be 79.1 °C.
For “AGATCATATATATCGAT+ATCGATATATATGATCT (((((((((((((((((+)))))))))))))))))”, the melting temperature (Tm) (sodium 0.12 M, strand 4 µM) is 49.2 °C.
For “TTCCAAAAGGAGTTATGAGTTGCGA+TCGCAACTCATAACTCCTTTTGGAA (((((((((((((((((((((((((+)))))))))))))))))))))))))”, the midpoint of thermal melting (Tm) reads like this: (sodium 0.07 M, strand 2 µM) 59.1 °C; (sodium 0.12 M, strand 2 µM) 63 °C; (sodium 0.22 M, strand 2 µM) 67.2 °C; (sodium 0.62 M, strand 2 µM) 71.6 °C; (sodium 1.02 M, strand 2 µM) 73.8 °C.
Turning to “AATATATATAGAGTGGCCGCAA+TTGCGGCCACTCTATATATATT ((((((((((((((((((((((+))))))))))))))))))))))”, under “sodium 0.12 M, strand 6 µM”, the melting temperature (Tm) is 65.2 °C.
With “AATATATATGAATTCTAATTATAA+TTATAATTAGAATTCATATATATT ((((((((((((((((((((((((+))))))))))))))))))))))))”, the Tm (sodium 0.12 M, strand 4.4 µM) is 46.2 °C.
Consider “ATACGCGAGGATCCAGCGCAAT+ATTGCGCTGGATCCTCGCGTAT ((((((((((((((((((((((+))))))))))))))))))))))”, for which, for the setting “sodium 0.12 M, strand 4 µM”, the midpoint of thermal melting (Tm) was determined as 71.1 °C.
With “ATAAATTAGGATCCATATAAAT+ATTTATATGGATCCTAATTTAT ((((((((((((((((((((((+))))))))))))))))))))))”, where the note is “sodium 0.12 M, strand 5.8 µM”, the Tm is 47.7 °C.
Take “CCATCATTGTGTCTACCTCA+TGAGGTAGACACAATGATGG ((((((((((((((((((((+))))))))))))))))))))”: the melting temperature (Tm) was 55.6 °C (sodium 0.07 M, strand 2 µM); 59.5 °C (sodium 0.12 M, strand 2 µM); 63.1 °C (sodium 0.22 M, strand 2 µM); 67.3 °C (sodium 0.62 M, strand 2 µM); 68.5 °C (sodium 1.02 M, strand 2 µM).
